Laboratory results from article PMC12578645 (2025).

B1: gB-Ecto.H516P.L531E (HSV-1 glycoprotein B ectodomain stabilized in the prefusion conformation) (domain or fragment)
chain: not shown
modifications: N-linked glycans (densities seen at 141, 398, 430 and 674)

Legend:
Assay in all cases: SPR
SS55 = target: SS55
SS10 = target: SS10
DL16 = target: DL16
[1] = target: B1
[2] = target: T1, gB-Ecto.H516P (HSV-1 glycoprotein B ectodomain with H516P and an appended foldon; postfusion) (HSV-1 KOS strain, UniProt P06437 31-728, H516P, N-linked glycans (densities seen at 141, 398, 430 and 674))
[3] = target: B1; remark: listed apart in the source
[4] = target: T1, gB-Ecto.H516P (HSV-1 glycoprotein B …); remark: listed apart in the source
[5] = target: T2, gB-Ecto.H516P.L531E.DS (HSV-1 glycoprotein B ectodomain stabilized in the prefusion conformation with the … (HSV-1 KOS strain, UniProt P06437 31-728, H516P | L531E | A240C | E607C))
[6] = target: T2, gB-Ecto.H516P.L531E.DS (HSV-1 …); remark: listed apart in the source

| Binder | koff [1] [s⁻¹] | koff [2] [s⁻¹] | Kd [3] [nM] | Kd [4] [nM] | koff [5] [s⁻¹] | Kd [6] [nM] | other results |
| --- | --- | --- | --- | --- | --- | --- | --- |
| B1 |  |  |  |  |  |  | Kd (SS55): 7.47 nM; koff (SS55): 0.000208 s⁻¹; Kd (SS10): 1.03 nM; koff (SS10): 5.6e-05 s⁻¹; Kd (DL16): 28.2 nM; koff (DL16): 0.0013 s⁻¹ |
| D48 Fab (Fab, V domains shown) VH: EVQLVETGGGVVRPGRSLRLSCTTSGFSFSGSAMHWVRQAPGKGLEWVAVISHDGNIIQYHDSVKGRFTISRDNSKNVLLLQMNSLRVDDTAMYYCARDVWLLPATISYAFDFWGQGTMVTVSS VL: VIWMTQSPPSLSASIGDTVTITCRASQGISNSIAWYQRRPGKAPELLVYAAYRLQSGVPSRLSGSGSGAEYTLTIKNMQPEDFATYYCQQYYDNPLTFGGGTKVEIK | 1.08e-05 | 4.06e-05 | 0.0272 | 0.252 |  |  |  |
| D48 Fab (Fab, V domains shown, engineered disulfide A240C-E607C; N-linked glycans (densities seen at 141, 398, 430 and 674)) VH: EVQLVETGGGVVRPGRSLRLSCTTSGFSFSGSAMHWVRQAPGKGLEWVAVISHDGNIIQYHDSVKGRFTISRDNSKNVLLLQMNSLRVDDTAMYYCARDVWLLPATISYAFDFWGQGTMVTVSS VL: VIWMTQSPPSLSASIGDTVTITCRASQGISNSIAWYQRRPGKAPELLVYAAYRLQSGVPSRLSGSGSGAEYTLTIKNMQPEDFATYYCQQYYDNPLTFGGGTKVEIK |  |  |  |  | 2.18e-05 | 0.0827 |  |
| PILRα_G78 ectodomain (paired immunoglobulin-like type 2 receptor alpha, HSV-1 gB co-receptor, with R78G) (receptor) QPSGSTGSGPSYLYGVTQPKHLSASMGGSVEIPFSFYYPWELATAPDVRISWRRGHFHGQSFYSTRPPSIHKDYVNRLFLNWTEGQKSGFLRISNLQKQDQSVYFCRVELDTRSSGRQQWQSIEGTKLSITQAVTTTTQRPSSMTTTWRLSSTTTTTGLRVTQGKRRSDSWHISLETA | 0.34 | 0.66 | 1600 | 2000 |  |  |  |
| PILRα_G78 ectodomain (paired immunoglobulin-like type 2 receptor alpha, HSV-1 gB co-receptor, with R78G) (receptor, engineered disulfide A240C-E607C; N-linked glycans (densities seen at 141, 398, 430 and 674)) QPSGSTGSGPSYLYGVTQPKHLSASMGGSVEIPFSFYYPWELATAPDVRISWRRGHFHGQSFYSTRPPSIHKDYVNRLFLNWTEGQKSGFLRISNLQKQDQSVYFCRVELDTRSSGRQQWQSIEGTKLSITQAVTTTTQRPSSMTTTWRLSSTTTTTGLRVTQGKRRSDSWHISLETA |  |  |  |  | 0.33 | 1800 |  |
